Measured values published in publication PMC8204981, “Helicobacter pylori GmhB enzyme involved in ADP-heptose biosynthesis pathway is essential for lipopolysaccharide biosynthesis and bacterial virulence” (Virulence, 2021).

How the values were obtained:
[1] = tested on: O=P(O)(O)OC[C@@H](O)[C@H]1O[C@H](OP(=O)(O)O)[C@@H](O)[C@@H](O)[C@@H]1O; experiment: purified protein; details: 20 mM HEPES pH 8.0, 10 mM MgCl2, 10 mM KCl, 25 °C, 30 min
Excerpt: (§1) malachite green phosphate release assay, Michaelis-Menten fit on HP0860 protein (H. pylori GmhB)

[2] = tested on: O=P(O)(O)OC[C@@H](O)[C@H]1O[C@@H](OP(=O)(O)O)[C@@H](O)[C@@H](O)[C@@H]1O; experiment: purified protein; details: 20 mM HEPES pH 8.0, 10 mM MgCl2, 10 mM KCl, 25 °C, 30 min
Excerpt: as §1

Question: Which Km [1] does the source give for “HP0860 protein (H. pylori GmhB) (Helicobacter pylori 26695)” here?
Answer: 300 ± 80 µM

Question: And the kcat [1]?
Answer: 1.07 ± 0.1 s⁻¹

Question: What about the kcat/Km [1] of the same substance?
Answer: 3570 M⁻¹ s⁻¹

Question: And the Km [2]?
Answer: 210 ± 50 µM

Question: What about the kcat [2] of the same substance?
Answer: 2.18 ± 0.17 s⁻¹

Question: And the kcat/Km [2]?
Answer: 10400 M⁻¹ s⁻¹
